Data on eight sequences can be found in the supplement of paper PMC12458215.

This data set relates to HEK293T. The data set is described as follows: plasma membrane surface immunostaining intensity (anti-HA, deep receptor scanning) (arbitrary fluorescence units); higher = higher plasma membrane expression.

± gives the uncertainty stated by the source.

For “MAMTWIVFSLWPLTVFMGHIGGHSLFSCEPITLRMCQDLPYNTTFMPNLLNHYDQQTAALAMEPFHPMVNLDCSRDFRPFLCALYAPICMEYGRVTLPCRRLCQRAYSECSKLMEMFGVPWPEDMECSRFPDCDEPYPRLVDLNLAGEPTEGAPVAVQRDYGFWCPRELKIDPDLGYSFLHVRDCSPPCPNMYFRREELSFARYFIGLISIICLSATLFTFLTFLIDVTRFRYPERPIIFYAVCYMMVSLIFFIGFLLEDRVACNASIPAQYKASTVTQGSHNKACTMLFMILYFFTMAGSVWWVILTITWFLAAVPKWGSEAIEKKALLFHASAWGIPGTLTIILLAMNKIEGDNISGVCFVGLYDVDALRYFVLAPLCLYVVVGVSLLLAGIISLNRVRIEIPLEKENQDKLVKFMIRIGVFSILYLVPLLVVIGCYFYEQAYRGIWETTWIQERCREYHIPCPYQVTQMSRPDLILFLMKYLMALIVGIPSVFWVGSKKTCFEWASFFHGRRKKEIVNESRQVLQEPDFAQSLLRDPNTPIIRKSRGTSTQGTSTHASSTQLAMVDDQRSKAGSIHSKVSSYHGSLHRSRDGRYTPCSYRGMEERLPHGSMSRLTDHSRHSSSHRLNEQSRHSSIRDLSNNPMTHITHGTSMNRVIEEDGTSA [FZD3]”, the “plasma membrane surface immunostaining intensity” value (GPCR class: F) was determined as 177 ± 57. “MNVSGCPGAGNASQAGGGGGWHPEAVIVPLLFALIFLVGTVGNTLVLAVLLRGGQAVSTTNLFILNLGVADLCFILCCVPFQATIYTLDGWVFGSLLCKAVHFLIFLTMHASSFTLAAVSLDRYLAIRYPLHSRELRTPRNALAAIGLIWGLSLLFSGPYLSYYRQSQLANLTVCHPAWSAPRRRAMDICTFVFSYLLPVLVLGLTYARTLRYLWRAVDPVAAGSGARRAKRKVTRMILIVAALFCLCWMPHHALILCVWFGQFPLTRATYALRILSHLVSYANSCVNPIVYALVSKHFRKGFRTICAGLLGRAPGRASGRVCAAARGTHSGSVLERESSDLLHMSEAAGALRPCPGASQPCILEPCPGPSWQGPKAGDSILTVDVA [GALR2]”: the “plasma membrane surface immunostaining intensity” value (GPCR class: A) was 2060 ± 420. For “MEEENATLLTEFVLTGFLYQPQWKIPLFLAFLVIYLITIMGNLGLIAVIWKDPHLHIPMYLLLGNLAFVDAWISSTVTPKMLNNFLAKSKMISLSECKIQFFSIAIGVTTECFLLATMAYDRYVAICKPLLYPAIMTNGLCIRLLILSYIAGILHALIHEGFLFRLTFCNSNIVHHIYCDTIPLSKISCTDSSINFLMVFIFSGSIQVFSIVTILISYTFVLFTVLEKKSDKGVRKAFSTCGAHLFSVCLYYGPLLLMYVGPASPQADGQNMVEPLFYTVIIPLLNPIIYSLRNKQVIVSFIKMLKRNVKVSY [OR5H15]”, the “plasma membrane surface immunostaining intensity” value (GPCR class: A (Olfactory)) was 181 ± 56. For the sequence “MGKENCTTVAEFILLGLSDVPELRVCLFLLFLLIYGVTLLANLGMIALIQVSSRLHTPMYFFLSHLSSVDFCYSSIIVPKMLANIFNKDKAISFLGCMVQFYLFCTCVVTEVFLLAVMAYDRFVAICNPLLYTVTMSWKVRVELASCCYFCGTVCSLIHLCLALRIPFYRSNVINHFFCDLPPVLSLACSDITVNETLLFLVATLNESVTIMIILTSYLLILTTILKMGSAEGRHKAFSTCASHLTAITVFHGTVLSIYCRPSSGNSGDADKVATVFYTVVIPMLNSVIYSLRNKDVKEALRKVMGSKIHS [OR5L1]”, the “plasma membrane surface immunostaining intensity” value (GPCR class: A (Olfactory)) was found to be 145 ± 28. On to “MKVGVLWLISFFTFTDGHGGFLGKNDGIKTKKELIVNKKKHLGPVEEYQLLLQVTYRDSKEKRDLRNFLKLLKPPLLWSHGLIRIIRAKATTDCNSLNGVLQCTCEDSYTWFPPSCLDPQNCYLHTAGALPSCECHLNNLSQSVNFCERTKIWGTFKINERFTNDLLNSSSAIYSKYANGIEIQLKKAYERIQGFESVQVTQFRNGSIVAGYEVVGSSSASELLSAIEHVAEKAKTALHKLFPLEDGSFRVFGKAQCNDIVFGFGSKDDEYTLPCSSGYRGNITAKCESSGWQVIRETCVLSLLEELNKNFSMIVGNATEAAVSSFVQNLSVIIRQNPSTTVGNLASVVSILSNISSLSLASHFRVSNSTMEDVISIADNILNSASVTNWTVLLREEKYASSRLLETLENISTLVPPTALPLNFSRKFIDWKGIPVNKSQLKRGYSYQIKMCPQNTSIPIRGRVLIGSDQFQRSLPETIISMASLTLGNILPVSKNGNAQVNGPVISTVIQNYSINEVFLFFSKIESNLSQPHCVFWDFSHLQWNDAGCHLVNETQDIVTCQCTHLTSFSILMSPFVPSTIFPVVKWITYVGLGISIGSLILCLIIEALFWKQIKKSQTSHTRRICMVNIALSLLIADVWFIVGATVDTTVNPSGVCTAAVFFTHFFYLSLFFWMLMLGILLAYRIILVFHHMAQHLMMAVGFCLGYGCPLIISVITIAVTQPSNTYKRKDVCWLNWSNGSKPLLAFVVPALAIVAVNFVVVLLVLTKLWRPTVGERLSRDDKATIIRVGKSLLILTPLLGLTWGFGIGTIVDSQNLAWHVIFALLNAFQGFFILCFGILLDSKLRQLLFNKLSALSSWKQTEKQNSSDLSAKPKFSKPFNPLQNKGHYAFSHTGDSSDNIMLTQFVSNE [ADGRF1]”, for which, for the setting “GPCR class: B”, the “plasma membrane surface immunostaining intensity” value worked out at 466 ± 27. Consider “MKSPFYRCQNTTSVEKGNSAVMGGVLFSTGLLGNLLALGLLARSGLGWCSRRPLRPLPSVFYMLVCGLTVTDLLGKCLLSPVVLAAYAQNRSLRVLAPALDNSLCQAFAFFMSFFGLSSTLQLLAMALECWLSLGHPFFYRRHITLRLGALVAPVVSAFSLAFCALPFMGFGKFVQYCPGTWCFIQMVHEEGSLSVLGYSVLYSSLMALLVLATVLCNLGAMRNLYAMHRRLQRHPRSCTRDCAEPRADGREASPQPLEELDHLLLLALMTVLFTMCSLPVIYRAYYGAFKDVKEKNRTSEEAEDLRALRFLSVISIVDPWIFIIFRSPVFRIFFHKIFIRPLRYRSRCSNSTNMESSL [PTGDR]”, for which the “plasma membrane surface immunostaining intensity” value (GPCR class: A) amounted to 6000 ± 81.

As to “MEEENATLLTEFVLTGFLYQPQWKIPLFLAFLVIYLITIMGNLGLIAVIWKDPHLHIPMYLLLGNLAFVDAWISSTVTPKMLNNFLAKSKMISLSECKIQFFSFAISVTTECFLLATMAYDRYVAICKPLLYPAIMTNGLCIRLLILSYVGGILHALIHEGFLFRLTFCNSNIVHHIYCDTIPLSKISCTDSSINFLMVFIFSGSIQVFSIVTILVSYTFVLFAILKKKSDKGVRKAFSTCGAHLFSVSLYYGPLLFIYVGPASPQADDQDMVEPLFYTVIIPLLNPIIYSLRNKQVTVSFTKMLKKHVKVSY [OR5H1]”, where the note is “GPCR class: A (Olfactory)”, the “plasma membrane surface immunostaining intensity” value was determined as 124 ± 20.

Turning to “MAGAPGPLRLALLLLGMVGRAGPRPQGATVSLWETVQKWREYRRQCQRSLTEDPPPATDLFCNRTFDEYACWPDGEPGSFVNVSCPWYLPWASSVPQGHVYRFCTAEGLWLQKDNSSLPWRDLSECEESKRGERSSPEEQLLFLYIIYTVGYALSFSALVIASAILLGFRHLHCTRNYIHLNLFASFILRALSVFIKDAALKWMYSTAAQQHQWDGLLSYQDSLSCRLVFLLMQYCVAANYYWLLVEGVYLYTLLAFSVLSEQWIFRLYVSIGWGVPLLFVVPWGIVKYLYEDEGCWTRNSNMNYWLIIRLPILFAIGVNFLIFVRVICIVVSKLKANLMCKTDIKCRLAKSTLTLIPLLGTHEVIFAFVMDEHARGTLRFIKLFTELSFTSFQGLMVAILYCFVNNEVQLEFRKSWERWRLEHLHIQRDSSMKPLKCPTSSLSSGATAGSSMYTATCQASCS [GLP1R]”, under “GPCR class: B”, the “plasma membrane surface immunostaining intensity” value worked out at 560 ± 52.
